Data published in patent US6699683B1, “Active site of human gamma glutamy hydrolase” (Health Research Incorporated, priority 1996, dated 2004).

T1: human gamma glutamyl hydrolase (hGH) (Homo sapiens, UniProt Q92820, C134A)
T1 construct: A cDNA encoding the 294 amino acid mature form of hGH protein with an N-terminal methionine preceding the first arginine residue; added N-terminal methionine (start codon) (N); made in house; host or cells: E. coli BL21(DE3)pLysS, pET-24a (pET-hGH)
T1 sequence (Q92820 with tags, fused parts or gaps C134A): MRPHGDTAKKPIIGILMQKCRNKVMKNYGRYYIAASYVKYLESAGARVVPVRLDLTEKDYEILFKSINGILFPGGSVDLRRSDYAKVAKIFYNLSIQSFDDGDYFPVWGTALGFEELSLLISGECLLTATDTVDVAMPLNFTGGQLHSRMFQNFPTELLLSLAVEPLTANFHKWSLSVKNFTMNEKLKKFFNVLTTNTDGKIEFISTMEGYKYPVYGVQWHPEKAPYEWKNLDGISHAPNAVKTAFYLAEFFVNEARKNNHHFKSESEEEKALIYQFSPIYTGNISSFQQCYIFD

T2: human gamma glutamyl hydrolase (hGH) (Homo sapiens, UniProt Q92820, C134A)
T2 construct: A cDNA encoding the 294 amino acid mature form of hGH protein with an N-terminal methionine preceding the first arginine residue; added N-terminal methionine (start codon) (N); made in house; host or cells: E. coli BL21(DE3)pLysS, pET-24a (pET-hGH)
T2 sequence (Q92820 25-318 C134A): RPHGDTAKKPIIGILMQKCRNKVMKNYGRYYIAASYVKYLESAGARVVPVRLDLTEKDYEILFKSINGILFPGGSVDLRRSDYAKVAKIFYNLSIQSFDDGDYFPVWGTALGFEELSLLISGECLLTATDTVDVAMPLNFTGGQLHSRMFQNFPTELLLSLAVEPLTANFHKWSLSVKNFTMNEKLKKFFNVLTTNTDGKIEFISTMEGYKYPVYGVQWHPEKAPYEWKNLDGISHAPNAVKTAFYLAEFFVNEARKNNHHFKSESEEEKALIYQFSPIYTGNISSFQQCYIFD

T3: human gamma glutamyl hydrolase (hGH) (Homo sapiens, UniProt Q92820, H195A)
T3 construct: A cDNA encoding the 294 amino acid mature form of hGH protein with an N-terminal methionine preceding the first arginine residue; added N-terminal methionine (start codon) (N); made in house; host or cells: E. coli
T3 sequence (Q92820 25-318 H195A): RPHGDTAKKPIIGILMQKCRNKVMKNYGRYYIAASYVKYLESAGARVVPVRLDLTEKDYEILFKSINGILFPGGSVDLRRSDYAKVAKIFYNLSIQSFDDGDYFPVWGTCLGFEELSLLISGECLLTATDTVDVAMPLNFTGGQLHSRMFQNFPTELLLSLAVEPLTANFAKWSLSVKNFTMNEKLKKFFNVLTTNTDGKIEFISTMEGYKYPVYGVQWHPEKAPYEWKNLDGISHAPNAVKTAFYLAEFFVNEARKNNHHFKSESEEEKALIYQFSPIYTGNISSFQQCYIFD


Key:
Format in all cases: biochemical
[1] = system: human gamma glutamyl hydrolase (hGH); assay: Activity of baculovirus-expressed hGH mutants on methotrexate polyglutamates; conditions: mutants expressed in the baculovirus system
Description: This model for the active site of hGH has been tested by preparing the Cys110Ala, His220Ala, Glu222Ala, His171Ala, and His171Asn mutants of hGH. The mutants were expressed in the baculovirus system used for active hGH to facilitate the rapid expression and purification of the proteins. The mutant proteins were characterized for activity on methotrexate polyglutamates. […] The role of His171 in hGH has been examined by preparing the mutant His171Ala and the more conservative mutation His171Asn.

[2] = system: human gamma glutamyl hydrolase (hGH); assay: hGH activity assay with 4-NH2-10-CH3PteGlu2 as substrate (Km, Vmax, specific activity) of E. coli-expressed purified proteins
Experimental: (§1) Mutant plasmids were used to transform E. colistrain BL21(DE3)pLysS to kanamycin resistance. Cultures (20 ml) were grown for 16 hours at 37° C., 225 rpm in tryptone-phosphate broth (Moore et al. 1993), containing 30 μg/ml kanamycin and 34 μg/ml chloramphenicol. An aliquot (6 ml) of this culture was used to inoculate 500 ml of the same medium. Cultures were incubated at 27° C., 225 rpm until the OD600nm was 0.5-0.6. Isopropyl β-D-thiogalactoside (IPTG) was added to a final concentration of 1 mM and cultures were incubated for a further 3 hours. Cells were harvested by centrifugation and stored at −80° C. Cells from 1 liter of broth were resuspended in 50 ml of 50 mM Tris/HCl pH 7.5 buffer containing 500 mM NaCl and Complete protease inhibitor cocktail (Boehringer Mannheim, Indianapolis, Ind.). The mixture was sonicated and clarified by centrifugation at 20,000 g for 30 minutes at 4° C. A 20-60% ammonium sulfate precipitate was resuspended in 50 mM sodium acetate, pH 5.8, 1 mM octyl-β-D-glucoside (OBG) and 5% glycerol (buffer A). After dialysis at 4° C. against buffer A and clarification by centrifugation at 30,000 g, 4° C. for 120 minutes, the dialysate was applied in two aliquots to a Protein Pak SP colummn (1.0 cm×10 cm, Waters Division of Millipore Corp., Milford, Mass.) equilibrated in buffer A. The protein was eluted (1 ml/min) with a linear gradient in buffer A of 0 to 1M NaCl over 60 minutes. Fractions were assayed for hGH activity or for hGH protein by Western blot. Fractions containing hGH were pooled and frozen at −80° C. Wildtype hGH and the C19A, C110A, and C290A mutants eluted as two peaks whereas the C124A mutant eluted as a single peak coincident with the first peak for the other hGH proteins. […] There was 8-10 times more hGH protein in peak 1 than in peak 2. A statistically significant amount (40-82%) of enzyme activity of proteins purified on the SP column was lost when stored either at 4° C. or at −80° C. Thawed aliquots of peak 1 were incubated for 2 hours at 4° C. with 2 ml of pHMB agarose (0.8 μmole/ml agarose) (Sigma Chemical, St. Louis, Mo.) equilibrated in 50 mM sodium acetate pH 5.8, 20 mM OBG, 500 mM NaCl (buffer B). The matrix was poured into a column (0.75 cm×4.5 cm) and washed with buffer B. hGH protein was eluted with buffer B containing additionally 10 mM dithiothreitol and 50 mM β-mercaptoethanol. EDTA (1 mM final) was added to each fraction to inhibit remaining proteases. Fractions containing hGH were pooled and stored at −80° C.
(§2) Km and Vmax activities were measured using variable 4-NH2-10-CH3PteGlu2 substrate concentrations. Specific activities were measured using 200 μM 4-NH2-10-CH3PteGlu2 for 5 minutes.

[3] = target: T1, human gamma glutamyl hydrolase (hGH); assay: as above; conditions: assayed with either 4-NH2-10-CH3PteGlu2 or the better substrate 4-NH2-10-CH3PteGlu
Experimental: as §1, §2

[4] = target: T2, human gamma glutamyl hydrolase (hGH); assay: hGH activity in chromatography fractions measured with 4-NH2-10-CH3PteGlu5; conditions: substrate 4-NH2-10-CH3PteGlu5
Experimental: Mutant plasmids were used to transform E. colistrain BL21(DE3)pLysS to kanamycin resistance. Cultures (20 ml) were grown for 16 hours at 37° C., 225 rpm in tryptone-phosphate broth (Moore et al. 1993), containing 30 μg/ml kanamycin and 34 μg/ml chloramphenicol. An aliquot (6 ml) of this culture was used to inoculate 500 ml of the same medium. Cultures were incubated at 27° C., 225 rpm until the OD600nm was 0.5-0.6. Isopropyl β-D-thiogalactoside (IPTG) was added to a final concentration of 1 mM and cultures were incubated for a further 3 hours. Cells were harvested by centrifugation and stored at −80° C. Cells from 1 liter of broth were resuspended in 50 ml of 50 mM Tris/HCl pH 7.5 buffer containing 500 mM NaCl and Complete protease inhibitor cocktail (Boehringer Mannheim, Indianapolis, Ind.). The mixture was sonicated and clarified by centrifugation at 20,000 g for 30 minutes at 4° C. A 20-60% ammonium sulfate precipitate was resuspended in 50 mM sodium acetate, pH 5.8, 1 mM octyl-β-D-glucoside (OBG) and 5% glycerol (buffer A). […]

[5] = target: T3, human gamma glutamyl hydrolase (hGH); assay: Activity of His 171 to Ala hGH mutant from E. coli expression system
Description: CPS contains two domains and catalyzes the synthesis of carbamoyl phosphate from bicarbonate, glutamine, and two molecules of MgATP. The smaller subunit is the site of glutamine hydrolysis to produce ammonia for deliver to the larger subunit. In agreement with the site directed mutagenesis study described above, the model predicts that Cys110 in hGH is analogous to Cys 269 in CPS, which functions as the active site nucleophile attacking the γ-carbonyl of glutamine to form a glutamyl thioester intermediate (Thoden et al. 1998). The model also predicts that His 220 and Glu 222 in hGH are the other two amino acids in the catalytic triad, corresponding to His 353 and Glu 355 in CPS. His 220 and Glu 222 are conserved in the human, rat and mouse glutamyl hydrolase sequences. In the proposed model for hGH, His 220 would activate Cys 110 and Glu 222 would stabilize the resulting positively charged imidizolium cation. […] His 312 in CPS points away from the catalytic triad and is involved in substrate binding not catalysis. When His 312 in CPS was conservatively mutated to Asn, the Km for the substrate was increased 200-fold (Miran et al. 1991). […] Further reinforcing evidence for this alignment model was obtained by running the Pfam HMM search program (Sonnhammer et al. 1998). The Pfam result has an E-value of 0.13 with the GATase model of class-I glutamine amidotransferases. […]

Activity relative to wildtype enzyme [3]	hGH activity in SP cation exchange column fractions [4]	hGH activity (in words) [5]	Molecule	Activity on methotrexate polyglutamates [1]	Specific activity (nmol 4-NH2-10-CH3PteGlu2 hydrolyzed/min/mg protein) ([2]; 200 μM 4-NH2-10-CH3PteGlu2 for 5 minutes, mean ± SD of 3 experiments)	hGH activity (in words) ([2]; purified E. coli-expressed proteins)	Activity on methotrexate tetraglutamate [1]
less than 0.01 % of wildtype enzyme	no fractions contained hGH activity		C110A: hGH variant with cysteine 110 replaced by alanine (protein) RPHGDTAKKPIIGILMQKCRNKVMKNYGRYYIAASYVKYLESAGARVVPVRLDLTEKDYEILFKSINGILFPGGSVDLRRSDYAKVAKIFYNLSIQSFDDGDYFPVWGTALGFEELSLLISGECLLTATDTVDVAMPLNFTGGQLHSRMFQNFPTELLLSLAVEPLTANFHKWSLSVKNFTMNEKLKKFFNVLTTNTDGKIEFISTMEGYKYPVYGVQWHPEKAPYEWKNLDGISHAPNAVNPAFYLAEFFVNEARKKNHHFKSESEEEKALIYQFSPIYTGNISSFQQCYIFD	inactive	no activity	no activity	
		lack of activity	His171Ala: hGH mutant with His 171 changed to Ala (protein) RPHGDTAKKPIIGILMQKCRNKVMKNYGRYYIAASYVKYLESAGARVVPVRLDLTEKDYEILFKSINGILFPGGSVDLRRSDYAKVAKIFYNLSIQSFDDGDYFPVWGTCLGFEELSLLISGECLLTATDTVDVAMPLNFTGGQLHSRMFQNFPTELLLSLAVEPLTANFAKWSLSVKNFTMNEKLKKFFNVLTTNTDGKIEFISTMEGYKYPVYGVQWHPEKAPYEWKNLDGISHAPNAVNPAFYLAEFFVNEARKKNHHFKSESEEEKALIYQFSPIYTGNISSFQQCYIFD				inactive
